Like-named read-outs stand apart in the source and are kept apart here.
How the values were obtained:
Experiment in all cases: Biacore SPR; receptor-Fc captured by anti-Fc antibody, ligand injected
BMP9 = molecular target: T1, BMP9 (UniProt Q9UK05 320-429)
T1 construct: also called GDF2
T1 sequence (looked up): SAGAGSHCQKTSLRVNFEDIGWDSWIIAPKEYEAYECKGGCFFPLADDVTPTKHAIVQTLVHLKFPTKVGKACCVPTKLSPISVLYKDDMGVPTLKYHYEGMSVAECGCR
Experimental: (§1) Ligands were injected and allowed to flow over the captured receptor protein.

BMP10 [1] = molecular target: T2, BMP10 (UniProt O95393 317-424)
T2 sequence (looked up): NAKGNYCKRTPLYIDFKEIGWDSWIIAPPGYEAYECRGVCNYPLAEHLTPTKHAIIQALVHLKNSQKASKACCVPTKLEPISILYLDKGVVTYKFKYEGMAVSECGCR

GDF5 = molecular target: T3, GDF5 (UniProt P43026 382-501, limits assumed)
T3 construct: also called BMP14
T3 sequence (looked up): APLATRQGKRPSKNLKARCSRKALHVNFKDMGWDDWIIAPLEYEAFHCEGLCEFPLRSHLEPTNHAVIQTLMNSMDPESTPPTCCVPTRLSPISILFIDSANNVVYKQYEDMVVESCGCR
Experimental: as §1

GDF6 = molecular target: T4, GDF6 (UniProt Q6KF10 336-455, limits assumed)
T4 construct: also called BMP13
T4 sequence (looked up): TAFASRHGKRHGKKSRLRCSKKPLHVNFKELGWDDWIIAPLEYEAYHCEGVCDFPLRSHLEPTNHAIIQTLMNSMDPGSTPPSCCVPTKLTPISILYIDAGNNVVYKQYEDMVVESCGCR
Experimental: as §1

BMP7 = molecular target: T5, BMP7 (UniProt P18075 293-431)
T5 construct: also called osteogenic protein-1; OP-1
T5 sequence (looked up): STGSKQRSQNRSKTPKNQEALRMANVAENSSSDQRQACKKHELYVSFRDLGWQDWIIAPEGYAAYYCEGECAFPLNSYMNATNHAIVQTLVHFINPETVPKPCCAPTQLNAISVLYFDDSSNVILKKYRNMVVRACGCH

BMP2 = BMP2 (UniProt P12643 283-396)
Chain of BMP2 (P12643 283-396 limits assumed): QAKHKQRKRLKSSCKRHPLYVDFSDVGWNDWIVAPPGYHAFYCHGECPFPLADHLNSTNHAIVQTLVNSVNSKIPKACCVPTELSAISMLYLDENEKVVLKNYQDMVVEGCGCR

BMP4 = molecular target: T6, BMP4 (UniProt P12644 293-408)
T6 sequence (looked up): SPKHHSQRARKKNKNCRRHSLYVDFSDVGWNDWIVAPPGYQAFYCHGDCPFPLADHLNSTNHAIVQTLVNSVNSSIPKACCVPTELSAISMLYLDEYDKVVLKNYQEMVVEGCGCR

BMP6 [2] = molecular target: T7, BMP6 (UniProt P22004 382-513, limits assumed)
T7 sequence (looked up): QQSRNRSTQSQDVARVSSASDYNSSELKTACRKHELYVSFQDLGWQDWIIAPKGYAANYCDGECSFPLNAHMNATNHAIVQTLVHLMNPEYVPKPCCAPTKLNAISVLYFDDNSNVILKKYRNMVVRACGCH

BMP5 = molecular target: T8, BMP5 (UniProt P22003 317-454, limits assumed)
T8 sequence (looked up): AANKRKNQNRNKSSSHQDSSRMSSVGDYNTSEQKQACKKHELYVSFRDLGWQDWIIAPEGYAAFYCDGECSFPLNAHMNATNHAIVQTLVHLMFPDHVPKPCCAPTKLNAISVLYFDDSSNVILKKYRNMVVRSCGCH

GDF7 = molecular target: T9, GDF7 (UniProt Q7Z4P5 322-450, limits assumed)
T9 construct: also called BMP12
T9 sequence (looked up): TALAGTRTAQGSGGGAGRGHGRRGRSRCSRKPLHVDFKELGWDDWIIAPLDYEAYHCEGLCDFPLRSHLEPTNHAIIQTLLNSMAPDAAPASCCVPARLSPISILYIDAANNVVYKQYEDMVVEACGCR

Activin B = molecular target: T10, Activin B (UniProt P09529 293-407)
T10 construct: also called βBβB
T10 sequence (looked up): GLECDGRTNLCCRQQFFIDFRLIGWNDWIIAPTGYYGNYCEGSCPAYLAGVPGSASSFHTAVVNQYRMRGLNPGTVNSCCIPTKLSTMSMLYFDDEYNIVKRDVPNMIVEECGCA
Experimental: as §1

Activin A = molecular target: T11, Activin A (UniProt P08476 311-426)
T11 construct: also called βAβA
T11 sequence (looked up): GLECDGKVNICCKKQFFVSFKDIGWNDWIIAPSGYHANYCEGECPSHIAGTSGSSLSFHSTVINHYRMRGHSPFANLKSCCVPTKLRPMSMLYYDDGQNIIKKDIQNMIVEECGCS
Experimental: as §1

GDF8 = molecular target: T12, GDF8 (UniProt O14793 267-375)
T12 construct: also called myostatin; growth and differentiation factor-8
T12 sequence (looked up): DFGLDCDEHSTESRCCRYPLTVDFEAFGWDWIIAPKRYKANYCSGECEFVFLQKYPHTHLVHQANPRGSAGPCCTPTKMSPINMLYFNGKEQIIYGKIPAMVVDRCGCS
Experimental: as §1

GDF11 = molecular target: T13, GDF11 (UniProt O95390 299-407)
T13 construct: also called BMP11
T13 sequence (looked up): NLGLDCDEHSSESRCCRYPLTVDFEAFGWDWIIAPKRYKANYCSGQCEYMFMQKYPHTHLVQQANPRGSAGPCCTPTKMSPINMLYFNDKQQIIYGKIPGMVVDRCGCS
Experimental: as §1

GDF3 = molecular target: T14, GDF3 (UniProt Q9NR23 251-364)
T14 construct: also called VGR2
T14 sequence (looked up): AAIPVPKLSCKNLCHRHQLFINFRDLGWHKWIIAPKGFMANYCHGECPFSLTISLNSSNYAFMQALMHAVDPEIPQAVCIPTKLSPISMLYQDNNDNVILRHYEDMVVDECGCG
Experimental: as §1

BMP15 = molecular target: T15, BMP15 (UniProt O95972 268-392)
T15 construct: also called GDF9b
T15 sequence (looked up): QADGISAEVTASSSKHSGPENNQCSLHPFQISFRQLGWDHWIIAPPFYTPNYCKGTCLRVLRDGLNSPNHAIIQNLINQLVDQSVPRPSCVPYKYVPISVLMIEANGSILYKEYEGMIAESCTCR
Experimental: A Biacore™-based binding assay was used to compare ligand binding selectivity of the single-arm BMPRII-Fc heterodimeric complex described above with that of an BMPRII-Fc homodimeric complex. The single-arm BMPRII-Fc and homodimeric BMPRII-Fc were independently captured onto the system using an anti-Fc antibody. Ligands were injected and allowed to flow over the captured receptor protein.

TGFβ2 = molecular target: T16, TGFβ2 (UniProt P61812 303-414)
T16 construct: also called TGF-beta2
T16 sequence (looked up): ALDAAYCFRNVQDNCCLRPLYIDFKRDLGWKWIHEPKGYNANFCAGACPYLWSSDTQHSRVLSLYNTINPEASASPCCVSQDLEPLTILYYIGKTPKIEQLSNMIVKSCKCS
Experimental: as §1

TGFβ3 = molecular target: T17, TGFβ3 (UniProt P10600 301-412)
T17 construct: also called TGF-beta3
T17 sequence (looked up): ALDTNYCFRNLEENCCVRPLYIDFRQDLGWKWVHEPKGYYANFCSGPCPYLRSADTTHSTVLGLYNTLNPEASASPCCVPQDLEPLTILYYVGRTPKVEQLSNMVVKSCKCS
Experimental: as §1

TGFβ1 = molecular target: T18, TGFβ1 (UniProt P01137 279-390)
T18 construct: also called TGF-beta1
T18 sequence (P01137 279-390 limits assumed): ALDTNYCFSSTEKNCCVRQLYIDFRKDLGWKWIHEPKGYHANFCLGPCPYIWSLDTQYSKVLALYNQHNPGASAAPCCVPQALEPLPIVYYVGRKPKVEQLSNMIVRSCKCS
Experimental: as §1

BMP10 [3] = molecular target: T2, BMP10; remark: listed apart in the source
Experimental: as §1

BMP6 [4] = molecular target: T7, BMP6; remark: listed apart in the source
Experimental: as §1

## ALK1-Fc homodimer (Fc fusion)
BMP9
  Kd: 0.016 nM
  koff: 0.00013 s⁻¹
  kon: 7.9e+06 M⁻¹ s⁻¹
BMP10 [1]
  Kd: 0.006 nM
  koff: 0.00011 s⁻¹
  kon: 1.7e+07 M⁻¹ s⁻¹

## ALK3-Fc homodimer (Fc fusion)
GDF5
  Kd: 22 nM
  koff: 0.011 s⁻¹
  kon: 480000 M⁻¹ s⁻¹
GDF6
  Kd: 40 nM
  koff: 0.0013 s⁻¹
  kon: 34000 M⁻¹ s⁻¹
BMP7
  Kd: 15 nM
  koff: 0.018 s⁻¹
  kon: 1.2e+06 M⁻¹ s⁻¹
BMP2
  Kd: 0.13 nM
  koff: 8.9e-05 s⁻¹
  kon: 680000 M⁻¹ s⁻¹
BMP4
  Kd: 0.178 nM
  koff: 5.3e-05 s⁻¹
  kon: 300000 M⁻¹ s⁻¹
BMP6 [2]
  Kd: 35 nM
  koff: 0.0049 s⁻¹
  kon: 140000 M⁻¹ s⁻¹
BMP5
  Kd: 70 nM
  koff: 0.002 s⁻¹
  kon: 29000 M⁻¹ s⁻¹
GDF7
  Kd: 12 nM
  koff: 0.0027 s⁻¹
  kon: 220000 M⁻¹ s⁻¹

## ActRIIA-Fc homodimer (Fc fusion)
Activin B
  Kd: 0.025 nM
  koff: 0.0002 s⁻¹
  kon: 7.9e+06 M⁻¹ s⁻¹
Activin A
  Kd: 0.045 nM
  koff: 0.00062 s⁻¹
  kon: 1.4e+07 M⁻¹ s⁻¹
GDF8
  Kd: 0.099 nM
  koff: 0.0014 s⁻¹
  kon: 1.4e+07 M⁻¹ s⁻¹
GDF11
  Kd: 0.028 nM
  koff: 0.00072 s⁻¹
  kon: 2.6e+07 M⁻¹ s⁻¹
BMP10 [1]
  Kd: 0.086 nM
  koff: 0.0025 s⁻¹
  kon: 2.9e+07 M⁻¹ s⁻¹
BMP5
  Kd: 1.1 nM
  koff: 0.0045 s⁻¹
  kon: 4e+06 M⁻¹ s⁻¹

## ActRIIB-Fc homodimer (Fc fusion)
Activin B
  Kd: 0.02 nM
  koff: 0.0001 s⁻¹
  kon: 5.1e+06 M⁻¹ s⁻¹
BMP9
  Kd: 0.078 nM
  koff: 0.0011 s⁻¹
  kon: 1.4e+07 M⁻¹ s⁻¹
Activin A
  Kd: 0.019 nM
  koff: 0.00023 s⁻¹
  kon: 1.2e+07 M⁻¹ s⁻¹
GDF8
  Kd: 0.28 nM
  koff: 0.00023 s⁻¹
  kon: 830000 M⁻¹ s⁻¹
GDF11
  Kd: 0.002 nM
  koff: 0.00011 s⁻¹
  kon: 5e+07 M⁻¹ s⁻¹
GDF3
  Kd: 1.5 nM
  koff: 0.0022 s⁻¹
  kon: 1.4e+06 M⁻¹ s⁻¹
BMP10 [1]
  Kd: 0.011 nM
  koff: 0.00026 s⁻¹
  kon: 2.3e+07 M⁻¹ s⁻¹
BMP6 [2]
  Kd: 0.21 nM
  koff: 0.0068 s⁻¹
  kon: 3.2e+07 M⁻¹ s⁻¹

## BMPRII-Fc homodimer (Fc fusion)
BMP15
  Kd: 0.28 nM
  koff: 0.0028 s⁻¹
  kon: 9.9e+06 M⁻¹ s⁻¹
GDF6
  Kd: > 88 nM
Activin B
  Kd: 3.8 nM
  koff: 0.075 s⁻¹
  kon: 2e+07 M⁻¹ s⁻¹
BMP9
  Kd: 2.1 nM
  koff: 0.026 s⁻¹
  kon: 1.2e+07 M⁻¹ s⁻¹
BMP7
  Kd: > 38 nM
BMP10 [1]
  Kd: 0.098 nM
  koff: 0.0025 s⁻¹
  kon: 2.6e+07 M⁻¹ s⁻¹
BMP2
  Kd: > 2000 nM
BMP6 [2]
  Kd: > 8.9 nM

## TGFβRII-Fc homodimer (Fc fusion)
TGFβ2
  Kd: > 44 nM
TGFβ3
  Kd: 0.099 nM
  koff: 0.0059 s⁻¹
  kon: 5.9e+07 M⁻¹ s⁻¹
TGFβ1
  Kd: 0.025 nM
  koff: 0.0011 s⁻¹
  kon: 4.2e+07 M⁻¹ s⁻¹

B1: single-arm ActRIIB-Fc heterodimeric complex (Fc fusion)
chain 1: GRGEAETRECIYYNANWELERTNQSGLERCEGEQDKRLHCYASWRNSSGTIELVKKGCWLDDFNCYDRQECVATEENPQVYFCCCEGNFCNERFTHLPEAGGPEVTYEPPPTAPTGGGTHTCPPCPAPELLGGPSVFLFPPKPKDTLMISRTPEVTCVVVDVSHEDPEVKFNWYVDGVEVHNAKTKPREEQYNSTYRVVSVLTVLHQDWLNGKEYKCKVSNKALPAPIEKTISKAKGQPREPQVYTLPPSRKEMTKNQVSLTCLVKGFYPSDIAVEWESNGQPENNYKTTPPVLKSDGSFFLYSKLTVDKSRWQQGNVFSCSVMHEALHNHYTQKSLSLSPGK
chain 2: SNTKVDKRVTGGGTHTCPPCPAPELLGGPSVFLFPPKPKDTLMISRTPEVTCVVVDVSHEDPEVKFNWYVDGVEVHNAKTKPREEQYNSTYRVVSVLTVLHQDWLNGKEYKCKVSNKALPAPIEKTISKAKGQPREPQVYTLPPSREEMTKNQVSLTCLVKGFYPSDIAVEWESNGQPENNYDTTPPVLDSDGSFFLYSDLTVDKSRWQQGNVFSCSVMHEALHNHYTQKSLSLSPGK
notes: The C-terminal lysine may optionally be removed; also called ActRIIB-Fc:Fc heterodimer; single-arm ActRIIB-Fc:Fc
BMP10 [3]
  Kd: 0.12 nM
  koff: 0.0097 s⁻¹
  kon: 8e+07 M⁻¹ s⁻¹
Activin B
  Kd: 0.12 nM
  koff: 0.00042 s⁻¹
  kon: 3.5e+06 M⁻¹ s⁻¹
BMP9
  binding result: no binding
BMP6 [4]
  Kd: 0.69 nM
  koff: 0.029 s⁻¹
  kon: 4.2e+07 M⁻¹ s⁻¹
Activin A
  Kd: 0.099 nM
  koff: 0.003 s⁻¹
  kon: 3e+07 M⁻¹ s⁻¹
GDF8
  Kd: 0.29 nM
  koff: 0.001 s⁻¹
  kon: 3.5e+06 M⁻¹ s⁻¹
GDF11
  Kd: 0.02 nM
  koff: 0.00072 s⁻¹
  kon: 3.6e+07 M⁻¹ s⁻¹
GDF3
  Kd: 12 nM
  koff: 0.013 s⁻¹
  kon: 1.1e+06 M⁻¹ s⁻¹
